Test results reported in PMC10445738.

Tests used:
Assay in all cases: AP-MS
[1] = biological target: HOIL-1-interacting protein (HOIP), endogenous (UniProt Q96EP0); settings: FLAG-tagged OTULIN bait expressed in HEK293 cells; endogenous prey; parent: est. 27; read off a plot
SLC9A3R2, endogenous = SLC9A3R2, endogenous (UniProt Q15599); settings: FLAG-tagged OTULIN bait expressed in HEK293 cells; endogenous prey; read off a plot
SNX27, endogenous = SNX27, endogenous (UniProt Q96L92); settings: FLAG-tagged OTULIN bait expressed in HEK293 cells; endogenous prey; parent: est. 62; read off a plot
[2] = biological target: scribble (SCRIB), endogenous (UniProt Q14160); settings: FLAG-tagged OTULIN bait expressed in HEK293 cells; endogenous prey; parent: est. 110; read off a plot
Sequence of UniProt Q14160 (Q14160 whole entry): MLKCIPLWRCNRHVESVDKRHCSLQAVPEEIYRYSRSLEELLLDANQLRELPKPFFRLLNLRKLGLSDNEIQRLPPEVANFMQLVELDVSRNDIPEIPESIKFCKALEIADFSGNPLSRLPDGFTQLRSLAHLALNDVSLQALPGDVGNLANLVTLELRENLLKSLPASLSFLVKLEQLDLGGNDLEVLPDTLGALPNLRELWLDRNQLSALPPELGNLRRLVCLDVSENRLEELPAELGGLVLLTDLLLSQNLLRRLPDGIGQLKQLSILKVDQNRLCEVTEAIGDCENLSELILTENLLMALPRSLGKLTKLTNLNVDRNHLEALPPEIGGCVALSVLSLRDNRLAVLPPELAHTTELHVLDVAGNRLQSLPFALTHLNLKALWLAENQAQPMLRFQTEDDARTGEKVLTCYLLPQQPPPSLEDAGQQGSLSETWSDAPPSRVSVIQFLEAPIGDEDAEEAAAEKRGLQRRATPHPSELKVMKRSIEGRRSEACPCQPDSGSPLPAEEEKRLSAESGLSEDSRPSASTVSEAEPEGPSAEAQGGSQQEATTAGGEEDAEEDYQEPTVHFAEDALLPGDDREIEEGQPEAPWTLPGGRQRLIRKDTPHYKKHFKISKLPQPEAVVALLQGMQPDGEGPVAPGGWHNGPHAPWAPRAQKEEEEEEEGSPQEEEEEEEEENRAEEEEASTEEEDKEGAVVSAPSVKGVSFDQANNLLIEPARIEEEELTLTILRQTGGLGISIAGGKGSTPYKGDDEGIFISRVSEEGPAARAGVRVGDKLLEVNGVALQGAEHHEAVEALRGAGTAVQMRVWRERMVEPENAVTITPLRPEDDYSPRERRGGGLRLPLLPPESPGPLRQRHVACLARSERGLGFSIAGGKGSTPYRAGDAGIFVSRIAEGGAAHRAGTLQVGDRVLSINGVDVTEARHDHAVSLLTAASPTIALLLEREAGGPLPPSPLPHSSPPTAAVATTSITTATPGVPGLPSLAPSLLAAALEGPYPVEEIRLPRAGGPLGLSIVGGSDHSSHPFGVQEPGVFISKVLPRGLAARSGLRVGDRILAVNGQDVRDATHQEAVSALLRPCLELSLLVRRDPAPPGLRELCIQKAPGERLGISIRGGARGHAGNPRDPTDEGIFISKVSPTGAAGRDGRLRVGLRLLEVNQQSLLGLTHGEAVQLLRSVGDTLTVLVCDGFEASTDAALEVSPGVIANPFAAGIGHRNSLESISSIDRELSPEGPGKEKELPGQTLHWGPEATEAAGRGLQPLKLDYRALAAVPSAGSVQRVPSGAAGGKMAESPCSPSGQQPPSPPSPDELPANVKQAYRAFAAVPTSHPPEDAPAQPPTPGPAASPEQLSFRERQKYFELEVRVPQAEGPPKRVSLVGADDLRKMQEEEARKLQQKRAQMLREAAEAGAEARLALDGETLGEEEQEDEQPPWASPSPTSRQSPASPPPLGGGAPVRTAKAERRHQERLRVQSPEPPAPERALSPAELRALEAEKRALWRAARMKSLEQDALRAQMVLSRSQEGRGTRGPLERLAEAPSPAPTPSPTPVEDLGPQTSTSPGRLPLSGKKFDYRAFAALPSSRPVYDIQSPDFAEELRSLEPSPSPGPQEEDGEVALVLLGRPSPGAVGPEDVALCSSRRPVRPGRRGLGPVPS

Sequence of UniProt Q15599 (Q15599 whole entry): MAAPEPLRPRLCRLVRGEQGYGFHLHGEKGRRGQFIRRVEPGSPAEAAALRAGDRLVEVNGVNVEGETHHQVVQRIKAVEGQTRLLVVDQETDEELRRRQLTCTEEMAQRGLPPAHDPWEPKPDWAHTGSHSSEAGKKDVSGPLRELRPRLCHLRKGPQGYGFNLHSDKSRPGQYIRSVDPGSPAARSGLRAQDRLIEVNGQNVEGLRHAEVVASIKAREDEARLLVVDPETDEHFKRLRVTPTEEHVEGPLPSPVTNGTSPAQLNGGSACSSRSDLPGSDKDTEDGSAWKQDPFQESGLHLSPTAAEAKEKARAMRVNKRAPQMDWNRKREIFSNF
Sequence of UniProt Q96EP0 (Q96EP0 whole entry): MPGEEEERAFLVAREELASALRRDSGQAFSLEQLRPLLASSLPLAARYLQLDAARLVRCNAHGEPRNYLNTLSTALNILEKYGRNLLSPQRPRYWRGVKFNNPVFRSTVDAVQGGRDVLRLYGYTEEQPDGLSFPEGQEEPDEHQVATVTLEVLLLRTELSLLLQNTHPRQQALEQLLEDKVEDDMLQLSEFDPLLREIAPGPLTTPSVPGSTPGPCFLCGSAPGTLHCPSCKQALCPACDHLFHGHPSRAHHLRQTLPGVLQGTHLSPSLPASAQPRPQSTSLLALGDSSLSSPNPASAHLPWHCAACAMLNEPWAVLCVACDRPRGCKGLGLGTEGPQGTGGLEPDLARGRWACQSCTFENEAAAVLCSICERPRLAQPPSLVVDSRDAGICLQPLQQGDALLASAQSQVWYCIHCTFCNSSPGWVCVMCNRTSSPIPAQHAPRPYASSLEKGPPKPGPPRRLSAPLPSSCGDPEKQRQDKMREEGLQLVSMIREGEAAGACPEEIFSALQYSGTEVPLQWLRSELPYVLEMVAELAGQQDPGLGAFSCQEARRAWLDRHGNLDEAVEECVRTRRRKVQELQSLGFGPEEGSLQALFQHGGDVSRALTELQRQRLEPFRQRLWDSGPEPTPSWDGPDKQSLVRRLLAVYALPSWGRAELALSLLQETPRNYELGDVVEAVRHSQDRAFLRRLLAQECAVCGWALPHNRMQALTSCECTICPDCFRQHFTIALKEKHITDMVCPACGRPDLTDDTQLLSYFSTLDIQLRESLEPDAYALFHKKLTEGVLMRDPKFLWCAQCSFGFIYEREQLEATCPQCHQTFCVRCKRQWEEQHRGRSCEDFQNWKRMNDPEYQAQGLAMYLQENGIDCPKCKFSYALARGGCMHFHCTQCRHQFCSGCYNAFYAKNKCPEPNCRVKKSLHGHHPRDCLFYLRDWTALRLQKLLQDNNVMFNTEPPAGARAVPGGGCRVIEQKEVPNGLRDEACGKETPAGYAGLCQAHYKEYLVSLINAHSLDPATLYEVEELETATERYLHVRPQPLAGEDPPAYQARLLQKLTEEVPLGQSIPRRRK

Substance “FLAG-tagged full-length OTULIN (WT) (from UniProt Q96BN8) ΔPBM: C-terminal ETSL to AAAA” has a response (spectral counts) [1] of 23, a response (spectral counts) (SLC9A3R2, endogenous) of 0 and a response (spectral counts) (SNX27, endogenous) of 0. The response (spectral counts) [2] was 0.
